Like-named read-outs stand apart in the source and are kept apart here.
T1: human OX40 expressed on HEK293A cells (human, UniProt P43489 29-277)
T1 construct: also called HEK293A/huOX40; HEK293A/human OX40 cells
T1 sequence: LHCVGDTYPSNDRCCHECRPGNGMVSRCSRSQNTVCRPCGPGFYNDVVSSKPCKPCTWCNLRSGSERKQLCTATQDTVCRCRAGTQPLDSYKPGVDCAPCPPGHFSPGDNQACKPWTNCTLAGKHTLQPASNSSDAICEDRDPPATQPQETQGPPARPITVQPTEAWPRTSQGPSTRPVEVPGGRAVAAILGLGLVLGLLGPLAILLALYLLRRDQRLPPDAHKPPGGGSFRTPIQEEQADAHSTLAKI

T2: rhesus OX40 expressed on HEK293A cells (rhesus, UniProt P43489 29-277 (human entry))
T2 construct: also called HEK293A/rhOX40; HEK293A/rhesusOX40 cells
T2 chain: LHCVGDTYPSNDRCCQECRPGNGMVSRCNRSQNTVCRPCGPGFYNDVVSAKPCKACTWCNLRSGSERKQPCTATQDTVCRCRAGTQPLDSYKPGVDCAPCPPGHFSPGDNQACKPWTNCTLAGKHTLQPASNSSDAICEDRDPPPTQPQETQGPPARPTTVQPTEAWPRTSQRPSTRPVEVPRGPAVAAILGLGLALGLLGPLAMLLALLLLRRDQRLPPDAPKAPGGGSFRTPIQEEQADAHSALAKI

T3: murine OX40-His (Crown, Cat#: E3350-B1707) (mouse, UniProt P47741 20-211)
T3 construct: bought protein; also called mouse OX40-his; muOX40-his; not shown: His tag
T3 sequence: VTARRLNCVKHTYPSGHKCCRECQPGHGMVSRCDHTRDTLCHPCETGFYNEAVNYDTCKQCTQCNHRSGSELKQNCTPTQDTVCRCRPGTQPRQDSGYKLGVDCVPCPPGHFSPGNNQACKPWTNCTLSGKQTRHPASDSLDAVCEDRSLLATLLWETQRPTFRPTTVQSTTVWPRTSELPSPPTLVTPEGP

T4: recombinant rhesus OX40-his (Sino Biological, Cat#:90846-C08H) (rhesus monkey, UniProt P43489 29-214 (human entry))
T4 construct: bought protein; also called monkey OX40-his; rhOX40-his; not shown: His tag
T4 chain: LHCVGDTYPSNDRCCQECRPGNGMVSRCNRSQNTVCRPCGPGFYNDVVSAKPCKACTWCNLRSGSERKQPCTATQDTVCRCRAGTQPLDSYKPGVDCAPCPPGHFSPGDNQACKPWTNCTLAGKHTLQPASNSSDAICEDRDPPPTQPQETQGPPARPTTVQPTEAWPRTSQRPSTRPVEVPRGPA

T5: recombinant human OX40-his (Sino Biological, Cat#:10481-H03H) (human, UniProt P43489 29-214)
T5 construct: bought protein; also called hOX40-his; not shown: His tag
T5 sequence: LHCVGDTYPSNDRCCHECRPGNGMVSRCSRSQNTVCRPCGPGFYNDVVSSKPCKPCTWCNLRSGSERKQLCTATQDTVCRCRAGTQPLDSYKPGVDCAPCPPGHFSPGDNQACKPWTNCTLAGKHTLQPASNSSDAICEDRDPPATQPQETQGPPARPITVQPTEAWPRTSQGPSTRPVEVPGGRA


How the values were obtained:
[1] = target: T1, human OX40 expressed on HEK293A cells; assay: FACS on HEK293A/huOX40 cells
[2] = target: T2, rhesus OX40 expressed on HEK293A cells; assay: FACS on HEK293A/rhOX40 cells
[3] = target: T3, murine OX40-His (Crown, Cat#: …); assay: ELISA on coated mouse OX40-His, OD450
[4] = target: T4, recombinant rhesus OX40-his (Sino …); assay: ELISA on coated rhesus OX40-His, OD450
[5] = target: T5, recombinant human OX40-his (Sino …); assay: SPR Biacore 8K, OX40-His on chip, antibody injected
Method: SPR assays were used to determine the binding affinity of the chimetic or humanized anti-OX40 antibodies to human OX40 with the BIAcore™ 8K instrument (GE Life Sciences). Briefly, 100-200 response units (RU) of human OX40-His protein (Sino Biological, CN, Cat#:10481-H03H, Lot no.: MA08MA3003) were coupled to CM5 biosensor chips (Cat#: BR-1005-30, GE Life Sciences), followed by blocking of un-reacted groups with 1M ethanolamine. Serially diluted antibodies at concentrations ranging from 0.3 µM to 10 µM were injected into the SPR running buffer (HBS-EP buffer, pH7.4, GE Life Sciences; US; Cat#:BR-1006-69) at 30 µL/minute. The binding capacitity was calculated with the RUs of blank controls subtracted. The association rate (k_a) and dissociation rate (k_d) were calculated using the one-to-one Langmuir binding model (BIA Evaluation Software, GE Life Sciences). The equilibrium dissociation constant K_D was calculated as the k_d/k_a ratio.

[6] = target: T2, rhesus OX40 expressed on HEK293A cells; assay: FACS on HEK293A/rhesus OX40 cells, MFI (panel without title; monkey OX40 by the legend)
Method: Briefly, 10^5 HEK293A cells were seeded into each well of the 96-well plates and serially diluted anti-OX40 antibodies were added to the plates. After incubated at 4° C. for 1 hour, plates were washed 3 times with PBST. Then, an APC coupled Goat Anti-Mouse IgG (BioLegen, US, Cat#: 405308) diluted 500× was added to the plates. After incubation at 4° C. for 1 hour, the plates were washed with PBS for 3 times and then cell fluorescence was monitored using a FACS machine (BD).
Example 15 Humanized Anti-OX40 Antibodies Bound to Human or Rhesus OX40 Expressed on HEK293A Cells The humanized anti-OX40 antibodies were also tested for their ability of binding to HEK293A/huOX40 cells or HEK293A/rhOX40 cells, following the FACS analysis protocol as described in Example 5.

[7] = target: T3, murine OX40-His (Crown, Cat#: …); assay: ELISA on coated mouse OX40-His, OD450; remark: listed apart in the source
[8] = target: T5, recombinant human OX40-his (Sino …); assay: ELISA on coated human OX40-His, OD450
[9] = target: T4, recombinant rhesus OX40-his (Sino …); assay: ELISA on coated rhesus OX40-His, OD450

| Binder | EC50 [1] | EC50 [2] | binding result [3] | binding result [4] | Kd [5] | koff [5] | kon [5] | binding result [6] | binding result [7] | EC50 (read off the curve) [8] | EC50 (read off the curve) [9] |
| --- | --- | --- | --- | --- | --- | --- | --- | --- | --- | --- | --- |
| chimeric antibody 6A12 (antibody, human IgG1, kappa, V domains shown, mouse variable regions with human IgG1/kappa constant regions) VH: QVQLQQSGPELVKPGASVKISCKASGYAFSSSWMNWVKQRPGKGLEWIGRIYPGDGITNYNGNFKGKATLTADKSSSTAYMQLSGLTSADSAVYFCAREFIPLGWGTGTTVTVSS VL: DIVMTQTPFSNPVTLGTSASISCRSSKSLLHSNGITYLYWYLQKPGQSPQLLIYQMSNLASGVPDRFSSSGSGTDFTLRISRVEAEDVGVYYCAQNLELPWTFGGGTKLEIKR | 177 ng/mL | 883 ng/mL | – | – | – | – | – | – | – | – | – |
| 68C8-VH2VL2 (antibody, human IgG1, kappa, V domains shown, humanized; also called 68C8-H2L2) VH: QVQLVQSGAEVKKPGASVKVSCKVSGDTFTSYWITWVRQRPGKGLEWMGDIHPGSGSTNNNEKFKNRVTMTVDTSTDTAYMELSSLRSEDTAVYYCATLRPYYFVYWGQGTLVTVSS VL: DIQMTQSPSSLSASVGDRVTITCRASQDISNYLNWYQQKPGKTPKLLIYYTSRLLSGVPSRFSGSGSGTDYTLTISSLQPEDFATYYCQQGNTLPLTFGQGTRLEIKR | – | – | no binding (tested: 10000 ng/ml (log 4)) | binds | 5.07 nM | 0.00105 s⁻¹ | 207000 M⁻¹ s⁻¹ | binds | – | – | – |
| 71H8-VH3VL3 (antibody, human IgG1, kappa, V domains shown, humanized; also called 71H8-H3L3) VH: QVQLVQSGAEVKKPGASVKVSCKVSGYTFTSYWITWVRQRPGQGLEWIGDIYPGSGSTNQNEKFKSRVTLTVDTSTDTAYMELSSLRSEDTAVYYCATLRPYYFVYWGQGTLVTVSS VL: DIQMTQSPSSLSASVGDRVTITCRASQDISNYLNWYQQKPGKTVKLLIYYTSRLLSGVPSRFSGSGSGTDYTLTISSLQPEDFATYFCQQGNTLPLTFGQGTRLEIKR | – | – | – | – | 6.36 nM | 0.00207 s⁻¹ | 325000 M⁻¹ s⁻¹ | binds | no binding (tested: 10000 ng/ml (log 4)) | ~3 ng/mL | ~3 ng/mL |
| 71H8-VH0VL0 (antibody, human IgG1, kappa, V domains shown, humanized; also called 71H8-H0L0) VH: QVQLVQSGAEVKKPGASVKVSCKVSGDTFTSYWITWVRQAPGKGLEWMGDIYPGSGSTNQNEKFKSRVTMTEDTSTDTAYMELSSLRSEDTAVYYCATLRPYYFVYWGQGTLVTVSS VL: DIQMTQSPSSLSASVGDRVTITCRASQDISNYLNWYQQKPGKAPKLLIYYTSRLLSGVPSRFSGSGSGTDFTLTISSLQPEDFATYYCQQGNTLPLTFGQGTRLEIKR | – | – | – | – | 9.21 nM | 0.00274 s⁻¹ | 297000 M⁻¹ s⁻¹ | binds | no binding (tested: 10000 ng/ml (log 4)) | ~3 ng/mL | ~3 ng/mL |
| 68C8-VH3VL2 (antibody, human IgG1, kappa, V domains shown, humanized; also called 68C8-H3L2) VH: QVQLVQSGAEVKKPGASVKVSCKVSGDTFTSYWITWVRQRPGQGLEWIGDIHPGSGSTNNNEKFKNRVTLTVDTSTDTAYMELSSLRSEDTAVYYCATLRPYYFVYWGQGTLVTVSS VL: DIQMTQSPSSLSASVGDRVTITCRASQDISNYLNWYQQKPGKTPKLLIYYTSRLLSGVPSRFSGSGSGTDYTLTISSLQPEDFATYYCQQGNTLPLTFGQGTRLEIKR | – | – | no binding (tested: 10000 ng/ml (log 4)) | binds | 9.55 nM | 0.00157 s⁻¹ | 165000 M⁻¹ s⁻¹ | binds | – | – | – |

Results, then the binder that gave them:

| EC50 [1] | EC50 [2] | binding result [3] | binding result [4] | Kd [5] | koff [5] | kon [5] | binding result [6] | binding result [7] | EC50 (read off the curve) [8] | EC50 (read off the curve) [9] | Binder |
| --- | --- | --- | --- | --- | --- | --- | --- | --- | --- | --- | --- |
| – | – | – | – | 4.81 nM | 0.00172 s⁻¹ | 358000 M⁻¹ s⁻¹ | binds | no binding (tested: 10000 ng/ml (log 4)) | ~3 ng/mL | ~3 ng/mL | 71H8-VH2VL2 (antibody, human IgG1, kappa, V domains shown, humanized; also called 71H8-H2L2) VH: QVQLVQSGAEVKKPGASVKVSCKVSGYTFTSYWITWVRQRPGKGLEWMGDIYPGSGSTNQNEKFKSRVTMTVDTSTDTAYMELSSLRSEDTAVYYCATLRPYYFVYWGQGTLVTVSS VL: DIQMTQSPSSLSASVGDRVTITCRASQDISNYLNWYQQKPGKTPKLLIYYTSRLLSGVPSRFSGSGSGTDYTLTISSLQPEDFATYYCQQGNTLPLTFGQGTRLEIKR |
| – | – | no binding (tested: 10000 ng/ml (log 4)) | binds | 4.49 nM | 0.00184 s⁻¹ | 410000 M⁻¹ s⁻¹ | binds | – | – | – | 68C8-VH0VL0 (antibody, human IgG1, kappa, V domains shown, humanized; also called 68C8-H0L0) VH: QVQLVQSGAEVKKPGASVKVSCKVSGDTFTSYWITWVRQAPGKGLEWMGDIHPGSGSTNNNEKFKNRVTMTEDTSTDTAYMELSSLRSEDTAVYYCATLRPYYFVYWGQGTLVTVSS VL: DIQMTQSPSSLSASVGDRVTITCRASQDISNYLNWYQQKPGKAPKLLIYYTSRLLSGVPSRFSGSGSGTDFTLTISSLQPEDFATYYCQQGNTLPLTFGQGTRLEIKR |
| – | – | no binding (tested: 10000 ng/ml (log 4)) | binds | 4.04 nM | 0.000821 s⁻¹ | 203000 M⁻¹ s⁻¹ | binds | – | – | – | 68C8-VH3VL3 (antibody, human IgG1, kappa, V domains shown, humanized; also called 68C8-H3L3) VH: QVQLVQSGAEVKKPGASVKVSCKVSGDTFTSYWITWVRQRPGQGLEWIGDIHPGSGSTNNNEKFKNRVTLTVDTSTDTAYMELSSLRSEDTAVYYCATLRPYYFVYWGQGTLVTVSS VL: DIQMTQSPSSLSASVGDRVTITCRASQDISNYLNWYQQKPGKTVKLLIYYTSRLLSGVPSRFSGSGSGTDYTLTISSLQPEDFATYFCQQGNTLPLTFGQGTRLEIKR |
| 134 ng/mL | 80.7 ng/mL | no binding (tested: 10000 ng/ml (log 4)) | – | 0.187 nM | 7.35e-05 s⁻¹ | 393000 M⁻¹ s⁻¹ | – | – | – | – | chimeric antibody 68C8 (antibody, human IgG1, kappa, V domains shown, mouse variable regions with human IgG1/kappa constant regions) VH: QVQLQQSGAELVKPGASVKMSCKASGDTFTSYWITWVKQRPGQGLEWIGDIHPGSGSTNNNEKFKNKATLTVDTSSSTAYMQLSSLTSEDSAVYYCAKLRPYYFVYWGQGTTLTVSS VL: DIQMTQTTSSLSASLGDRVTISCRASQDISNYLNWYQQKPDGTVKLLIYYTSRLLSGVPSRFSGSGSGTDYSLTISNLEQEDIATYFCQQGNTLPLTFGAGTRLELKR |
